Patent publication US5990094A, “Inhibitors of sorotonin N-acetyltransferase” (The Rockefeller University, priority 1998, dated 1999)

Key:
Assay in all cases: purified protein, by the assay type
[1] = substrate: CC(=O)SCCNC(=O)CCNC(=O)[C@H](O)C(C)(C)COP(=O)(O)OP(=O)(O)OC[C@H]1O[C@@H](n2cnc3c(N)ncnc32)[C@H](O)[C@@H]1OP(=O)(O)O
[2] = substrate: NCCc1c[nH]c2ccc(O)cc12
[3] = substrate: NCCc1c[nH]c2ccccc12
[4] = substrate: CNCCc1c[nH]c2ccccc12; details: other: Table 1, tryptamine analogs
[5] = substrate: CC(N)Cc1c[nH]c2ccccc12; details: other: Table 1, tryptamine analogs
[6] = other: 1 mM (near saturating) concentration of the fixed substrate, GST-AANAT
[7] = other: ionic strength I~0.1, GST-AANAT
[8] = other: Table 1, tryptamine analogs

B1: GST-AANAT fusion (Ovis aries) (protein)
chain: MSTPSVHCLKPSPLHLPSGIPGSPGRQRRHTLPANEFRCLTPEDAAGVFEIEREAFISVSGNCPLNLDEVQHFLTLCPELSLGWFVEGRLVAFIIGSLWDEERLTQESLALHRPRGHSAHLHALAVHRSFRQQGKGSVLLWRYLHHVGAQPAVRRAVLMCEDALVPFYQRFGFHPAGPCAIVVGSLTFTEMHCSLRGHAALRRNSDR
Km [1, 6]: 289 µM
Km [1, 7]: 100 µM
Km [2, 6]: 241 µM
Km [3, 7]: 100 µM

B2: unmodified AANAT (Ovis aries) (protein)
chain: B1 chain
Km ([1]; other: 1 mM (near saturating) concentration of the fixed substrate, AANAT): 178 µM

B3: AANAT (Ovis aries) (protein)
chain: B1 chain
Km [2, 8]: 240 µM
Km [4]: 3800 µM
Km [3, 8]: 170 µM
Km [5]: 2700 µM
